The values that follow come from patent US20210009663A1 (published 2021).

One may read the Kd as the free concentration of one partner at which half of the binding sites on the other are occupied at equilibrium, for simple one-to-one binding. A high value points to lower affinity.

Assay [1] has as its target T1, Zika virus envelope protein, strain H/PF/2013 (French Polynesia 2013) (Zika virus). In words: cell-based or functional assay.
The target in assay [2] is T1, Zika virus envelope protein, strain ….

Where only a bound is given, the exact number is not on record here.

T1 sequence (A0A024B7W1 291-794): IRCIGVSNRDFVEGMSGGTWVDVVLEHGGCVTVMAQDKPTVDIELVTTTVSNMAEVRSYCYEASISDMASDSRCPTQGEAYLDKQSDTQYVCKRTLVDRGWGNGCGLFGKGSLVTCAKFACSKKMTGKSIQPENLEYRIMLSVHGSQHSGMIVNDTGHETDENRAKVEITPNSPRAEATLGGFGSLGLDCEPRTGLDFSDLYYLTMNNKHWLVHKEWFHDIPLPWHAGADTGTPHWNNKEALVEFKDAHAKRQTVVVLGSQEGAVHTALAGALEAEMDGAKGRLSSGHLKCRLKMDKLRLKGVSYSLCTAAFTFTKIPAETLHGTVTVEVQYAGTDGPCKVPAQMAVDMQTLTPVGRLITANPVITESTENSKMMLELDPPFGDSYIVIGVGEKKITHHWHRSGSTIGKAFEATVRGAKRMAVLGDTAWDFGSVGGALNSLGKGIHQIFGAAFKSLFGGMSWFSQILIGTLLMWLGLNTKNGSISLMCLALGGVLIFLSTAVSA

B1: mAb 8 (antibody, V domains shown)
VH: EVQLLESGGGLVQPGGSLRLSCAASGFSFSTYSMHWVRQAPGKGLEWVSAISGEGDSAYYADSVKGRFTISRDNSKNTLYLQMNKVRAEDTAVYYCVGGYSNFYYYYTMDAWGQGTMVTVSS
VL: DIVMTQSPASLSLSPGERATLSCRATQSISTFLAWYQQKPGQAPRLLIYDASTRASGIPARFSGSRSGTDFTLTITRLEPEDFAVYYCQQRYNWPPYSFGQGTKLEIK
With B1, in assay [1], the “ADE in THP1.2S cells, viral titers at peak enhancement” value is not below 3 fold and the PRNT50 was 5.09 µg/mL.

B2: fusion loop targeting pan-flavivirus antibody 4G2 (antibody, V domains shown)
VH: EVQLQQSGPELVKPGTSVKISCKTSGYTFTEYTIHWVKQSHGKSLAWIGGIDPNSGGTNYSPNFKGKATLTVDKSSSTAYMDLRSLSSEDSAVYFCARIYHYDGYFDVWGAGTAVTVSS
VL: DIKMTQSPSSMYASLGERVTITCKASQDINSYLTWFQQKPGKSPKTLIYRANRLIDGVPSRFSGSGSGQDYSLTISSLDYEDMGIYYCLQYDEFPPTFGGGTKLEIKR
As for B2, the affinity in assay [2], expressed as Kd, was 10.3 µg/mL.
